± gives the half width of the 95% confidence interval.
How the values were obtained:
[1] = folding stability dG unfold from trypsin proteolysis; higher = more stable
In short: (§1)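 Designed mini-proteins (under 80 residues, no cysteine) in a PA-tagged cDNA display construct were digested with trypsin and chymotrypsin. Each protease was used at 11 concentrations (threefold dilutions) plus a no-protease condition, followed by sequencing. K50 was inferred by Bayesian fitting of sequencing counts, and unfolding free energy was derived against a sequence-predicted unfolded-state K50 and a shared folded-state K50, per protease or combined. Only designs with AlphaFold2 dimer inter-PAE above 15 were kept.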

[2] = folding stability dG unfold from chymotrypsin proteolysis; higher = more stable
In short: as §1

[3] = folding stability dG unfold (combined trypsin and chymotrypsin); higher = more stable
In short: as §1

Sequence | folding stability dG unfold [1] | folding stability dG unfold [2] | folding stability dG unfold [3]
SPEAVAEALRKLGFDLDIERIDVEPLPDGTYRVTVTRGDKPVFTVTVTAPPPPPPVFVVRDADGTERLVRSA [r9_442_TrMRF] | 0.704 ± 0.054 kcal/mol | 2.4 ± 0.03 kcal/mol | 1.98 ± 0.036 kcal/mol
SPEKEIKVKYELPEPGSGPVKVEATFTINPKTGEVKMPVTLTRPGSSSQVNLPEELLKELKNKVLEELGKSA [r9_1136_JUSTAS] | -0.621 ± 0.29 kcal/mol | 0.795 ± 0.089 kcal/mol | 0.442 ± 0.083 kcal/mol
SPEVPPGKTLEREFKGVPVRLTREEESGTIHITVYPPTDPSKPLYEAEFSPDELRPIPLPPEVAAALAAESA [r9_1051_JUSTAS] | -0.681 ± 0.24 kcal/mol | 0.0553 ± 0.1 kcal/mol | -0.13 ± 0.16 kcal/mol
SPFRLKIEIDEVGPAGQEIRVKLEIWSDNKPIEMEHTIKVPNGRLYRIRMNIYMPPDGNFQLNLDVYPLDSA [r9_255_TrROS] | 4.29 ± 0.23 kcal/mol | 6.34 ± 0.37 kcal/mol | > 6 kcal/mol
SPIYVFIEKTNNKRTIMIQNPENGWWVEIKFNGGEITFPIDSVEDFLDELKDLGWPIEITKIRPLPPGQLSA [r9_1102_TrROS] | 2.79 ± 0.17 kcal/mol | 3.32 ± 0.12 kcal/mol | 3.16 ± 0.16 kcal/mol
SPKEPQKVRIRIRNPENGKPIWEFDIWFPPDGGVKVKIEHPNEKHEYPMPADEALDFLENHPFKIEEIEVSA [r9_470_TrROS] | 0.739 ± 0.18 kcal/mol | 0.301 ± 0.2 kcal/mol | 0.567 ± 0.33 kcal/mol
SPLERLLRAILNAPADTTIVVPLPDDLVAVIRIEPATTELDGVPYRFLVARIEIRNPDGVLLGELTLVLPLS [r1_386_TrMRF] | 3.88 ± 0.086 kcal/mol | 5.78 ± 0.091 kcal/mol | 5.63 ± 0.11 kcal/mol
SPLKPGDVYTEPGGPLLRVEKVTLSEDPNKFPKKLEIELVPIPPPTPTLEEYTLPNGERRTLVLFEFDGPSA [r9_914_JUSTAS] | -0.308 ± 0.31 kcal/mol | -1.17e-05 ± 0.5 kcal/mol | -0.217 ± 0.42 kcal/mol
SPLTLTFENPENGIRVELVFDPETPEVHAKVYAPNGELLSEETFEVEEKKITLRFNLEGKEFELEIELDESA [r9_385_TrMRF] | 3.86 ± 0.12 kcal/mol | 4.25 ± 0.082 kcal/mol | 4.16 ± 0.11 kcal/mol
SPNFERYEHTIEIELPNGRRIKIDVEMYRPPDGNPWARIKIEVEDNNGEPKKKDIWMPMNDAEKAIEDLLSA [r9_189_TrROS] | 1.9 ± 0.14 kcal/mol | 1.85 ± 0.093 kcal/mol | 1.99 ± 0.43 kcal/mol
SPPGLRIRIESPDNGEPIPFPIPPNVEVDVKRDKNGNFIATIKIQNPENGKKWTIEIDAPMRIVEIEPVPSA [r9_467_TrROS] | 1.6 ± 0.076 kcal/mol | 3.35 ± 0.16 kcal/mol | 2.76 ± 0.21 kcal/mol
SPPHWMIMPTVERKDPNGEKKTVTYMIPVPPGNWDKMLDNIADEAGDPDLKIKEIEPSKNGFIMIKLKVKSA [r9_1101_TrROS] | 0.497 ± 0.17 kcal/mol | 0.604 ± 0.48 kcal/mol | 0.0989 ± 0.54 kcal/mol
SPPIEIKPAPENYLIAKIIDPKTNKVYYILIPKDAKLDQPALVYHPDKKEYIPLKEILDLLKKGYPLSISSA [r9_250_TrMRF] | 2.09 ± 0.075 kcal/mol | 2.43 ± 0.059 kcal/mol | 2.35 ± 0.14 kcal/mol
SPPITFFRVPAEYDEPNGKRTIKVRIWRIRDVEKDPNGGPKMDMEPQPVTFKLPVPPGAPIPPGDWIFAFSA [r9_277_TrROS] | 1.57 ± 0.16 kcal/mol | 0.315 ± 0.35 kcal/mol | 0.831 ± 0.34 kcal/mol
SPPITIEIEYERNPDNGMFPLKVKAWNPDGEPIGEREIPFKGSPEEMRERAMKEAKELADKNGWPIEIEWSA [r9_31_TrROS] | -0.436 ± 0.17 kcal/mol | 0.637 ± 0.18 kcal/mol | 0.331 ± 0.19 kcal/mol
SPPNFEVKEVEIPVPWEEIKELLPPGFTDIEPTGDRWTLHFKHPGYFVMIEIQWDPEDNQFPVKISVFKMSA [r9_604_TrROS] | 2.59 ± 0.11 kcal/mol | 3.76 ± 0.054 kcal/mol | 3.35 ± 0.19 kcal/mol
SPPNFRMEQEEIEIEIRFPDGWRVSVEIEIHRMRFPDGDEMLHIDIKVEADPNNPGMRKLAKNLVEEIINSA [r9_908_TrROS] | 1.24 ± 0.21 kcal/mol | 2.14 ± 0.21 kcal/mol | 1.85 ± 0.41 kcal/mol
SPRIEVRKLPDGTELVRIEIPTPEGNPVVVEATVTYDPETGTVTQEVTLTDPNVPPEVKALLESFTLTVPSA [r9_715_JUSTAS] | 1.12 ± 0.019 kcal/mol | 1.54 ± 0.028 kcal/mol | 1.4 ± 0.042 kcal/mol

Sequence | folding stability dG unfold [1] | folding stability dG unfold [2] | folding stability dG unfold [3]
SPSPAAKNMKPIRIRLRDPNGKKYKIENINVGPDGQFQIRIKFPGNTHTQTLPPGAPFELPPDRIEEVEISA [r9_993_TrROS] | 0.808 ± 0.079 kcal/mol | 0.971 ± 0.2 kcal/mol | 0.959 ± 0.092 kcal/mol
SPVPLDVPPGSRAVLVFRFPDGSRAVAVFDPVTGKATVTFYPPDGSKVTRTFDGPDLADLPPGVERIAPLSA [r9_1110_TrMRF] | 1.77 ± 0.11 kcal/mol | 2.7 ± 0.12 kcal/mol | 2.34 ± 0.14 kcal/mol
SPVVLPLTLGDRPILARLYPGEGVLEVRDPDGRLVGRATVTPNRINLVFRALDDDTTLVFELPVLPPDDPSA [r9_963_TrMRF] | 1.66 ± 0.07 kcal/mol | 1.82 ± 0.045 kcal/mol | 1.84 ± 0.12 kcal/mol
SRKFLNDPNIDKVEPTIVIPMSPEERKELAQNLANGIYNYLREHGWPLPPNIEIKIIPFPSPEQMKKMMKSA [r9_204_TrROS] | 0.6 ± 0.15 kcal/mol | 1.09 ± 0.17 kcal/mol | 0.901 ± 0.13 kcal/mol
SRKISIWIPPDDPMMTPEEIANKLAQQGYPVEIDDVEWNPENGWVVITVEIEEPNGEPIADIEVWIPWNDSA [r9_879_TrROS] | 1.83 ± 0.098 kcal/mol | 1.6 ± 0.057 kcal/mol | 1.65 ± 0.19 kcal/mol
SRLTVTSEVDPNGNSSTSTITYYDPSTGQPYTLTVTITKLPDGTYKVTITFPSNSTTTTFTLAPDETINLSA [r9_1220_JUSTAS] | 2.58 ± 0.2 kcal/mol | 3.27 ± 0.055 kcal/mol | 3.04 ± 0.22 kcal/mol
SSASAMAPLPVEVYTLTVTVVKPGGEEVGTYTFTFNSPEEAKAFLEAFAKEKGLTIKKATLTRTPDTSLSSA [r9_1226_JUSTAS] | 2.7 ± 0.12 kcal/mol | 4.59 ± 0.054 kcal/mol | 4.16 ± 0.1 kcal/mol
SSEKVELAKKYLKEKGIPIKEFKEITPTGITILAPNGKWITISVKPGDLNEITINPKKSSDGGYENDIPYSA [r9_809_JUSTAS] | 0.215 ± 0.049 kcal/mol | 0.92 ± 0.09 kcal/mol | 0.669 ± 0.088 kcal/mol
SSGIAEIVAANPGVSLEELAKLIKEKLKAELPTDEPIEIKMTKSPDGYKITITIKDENNWHSDEYYVKPGSA [r9_805_JUSTAS] | 2.95 ± 0.2 kcal/mol | 3.14 ± 0.16 kcal/mol | 3.07 ± 0.19 kcal/mol
SSIEEQIREIFEPKGMEITDVKTEKKPDGTTVAKFTYTDPVKDEKGNPISTLTKEGTVVFKNGKIVEVEESA [r9_519_JUSTAS] | 2.27 ± 0.052 kcal/mol | 2.779 ± 0.016 kcal/mol | 2.61 ± 0.049 kcal/mol
SSIIIPGLPAEQARQLAKEFAEHYPNYDVKVEYHPDNGMITVDIEMPHKDPDGKPKGWRKMNINIHIWDPSA [r9_378_TrROS] | 0.868 ± 0.12 kcal/mol | 1.53 ± 0.17 kcal/mol | 1.23 ± 0.2 kcal/mol
SSIPLDVPPGERVVRKGVFPDGSELTATYDPTTGRWTVTYYPPDGSVRTSVVPGAALASLPPGFTETRLESA [r9_1110_JUSTAS] | 1.45 ± 0.043 kcal/mol | 2.28 ± 0.034 kcal/mol | 2.02 ± 0.14 kcal/mol
SSITVVETREERVTLPDGREVTRRETRVVELSEEELRRLLRERLREALREAGIEEVTEEDLDSPEVLAALSA [r9_263_TrROS_Hall] | 1.2 ± 0.054 kcal/mol | 2.2 ± 0.032 kcal/mol | 1.86 ± 0.12 kcal/mol
SSLENLEPVSYDVTVEEGPTSPSGVTYTRITITEPGGSTATVTVTPESLTLDYSVRDKARVEALVRELLESA [r9_662_JUSTAS] | 0.957 ± 0.019 kcal/mol | 0.989 ± 0.11 kcal/mol | 1.04 ± 0.064 kcal/mol
SSLTVRLELEVTFEDGLRVRVEVEAELREVDGKLELRVRVRVEVRPLPPPPPPPPPPRLSDEQLEELRKRSA [r9_965_TrROS_Hall] | 0.786 ± 0.19 kcal/mol | 2.34 ± 0.092 kcal/mol | 1.9 ± 0.19 kcal/mol
SSMPTTVTLTNPADSTTTPLPVPSNISVETTTLPDGSTAGTVTVTDPSTGKTTTITFSGPNTLTSTSATSSA [r9_467_JUSTAS] | 1.05 ± 0.03 kcal/mol | 0.398 ± 0.26 kcal/mol | 0.804 ± 0.13 kcal/mol
SSMYLLTVEITRPDGSVSSKTVPVNFAPGTTIDELLKALNLPKSSLATVTVTATEYSGGPPVTSTHTITLSA [r9_755_JUSTAS] | 2.02 ± 0.065 kcal/mol | 2.44 ± 0.052 kcal/mol | 2.34 ± 0.06 kcal/mol
SSPGKITTYEVTLTLPGPRPMTSTVDPSGVMTATVPDGTKITATIVPGPGTLTITTTFPDGTTSTSTISASA [r9_99_JUSTAS] | 1.26 ± 0.061 kcal/mol | 1.21 ± 0.058 kcal/mol | 1.26 ± 0.074 kcal/mol

Source: the supplement of paper PMC12764529
